Reference: patent US20190048085A1 (CELL MEDICA SWITZERLAND, published 2019)

Columns and labels:
[1] = target: monkey PD-L1 Fc fusion (monkey (Rhesus macaque, Macaca mulatta)) (UniProt F6PJN1); assay: KinExA, ratio of KD values
[2] = target: monkey PD-L1 Fc fusion (monkey (Rhesus macaque, Macaca mulatta)) (UniProt F6PJN1); assay: KinExA, room temperature, two curves (50 pM and 10 pM scFv)
[3] = target: T1, recombinant human PD-L1 Fc fusion (human, UniProt Q9NZQ7 19-239); assay: ELISA on immobilized recombinant human PD-L1-Fc (2 µg/mL), detection with Protein L-HRP, A450 nm
T1 construct: Bought Fc fusion (RnD Systems 156-B7); also called rhPD-L1 Fc fusion; not shown: Fc part of the bought fusion
T1 sequence (Q9NZQ7 19-239 limits assumed): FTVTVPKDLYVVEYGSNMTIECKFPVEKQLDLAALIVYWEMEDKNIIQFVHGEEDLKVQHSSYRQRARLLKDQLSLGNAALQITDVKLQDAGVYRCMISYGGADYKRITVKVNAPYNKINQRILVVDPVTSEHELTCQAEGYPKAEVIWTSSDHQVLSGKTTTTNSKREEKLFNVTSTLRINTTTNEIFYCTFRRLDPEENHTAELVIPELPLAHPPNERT
Description: After, blocking with 5% non-fat dry milk, increasing concentrations of scFv was added and detected by Protein L-HRP (Sigma-Aldrich).

fold tighter affinity than binding to human PD-L1 [1]: 2.7 fold
Kd [2]: 3.3 pM
EC50 (read off the curve) [3]: ~8 ng/mL
B1: anti-PD-L1 scFv (scFv)
scFv: EIVMTQSPSTLSASVGDRVIITCQASEDIYSLLAWYQQKPGKAPKLLIYDASDLASGVPSRFSGSGSGAEFTLTISSLQPDDFATYYCQGNYGSSSSSSYGAVFGQGTKLTVLGGGGGSGGGGSGGGGSGGGGSEVQLVESGGGLVQPGGSLRLSCTVSGIDLSSYTMGWVRQAPGKGLEWVGIISSGGRTYYASWAKGRFTISRDTSKNTVYLQMNSLRAEDTAVYYCARGRYTGYPYYFALWGQGTLVTVSS
notes: Humanized scFv with rabbit CDRs, VL-linker-VH; also called scFv1; scFv control
